In patent US20210403586A1, “MUTANT OF RANKL AND PHARMACEUTICAL COMPOSITION COMPRISING SAME FOR PREVENTING OR TREATING OSTEOPOROSIS” (INDUSTRY-ACADEMIC COOPERATION FOUNDATION CHOSUN UNIVERSITY, priority 2018, published 2021):

Columns and labels:
RANKL [1] = experiment: Western blot of serum for antibodies after mtRANKL immunization; type: in vivo, mouse; details: mice immunized 3 times with 0.2 mg mtRANKL with aluminum hydroxide adjuvant
Description: Proteins were separated by SDS-PAGE and electropermeated into a nitrocellulose membrane (Bio-Rad). After blocking the membrane with 5% (weight/volume) skim milk in TBST [10 mM Tris (pH 7.5), 150 mM NaCl, 0.1% (vol/vol) Tween 20], each mouse serum for primary antibody in the blocking solution was examined. The membrane was washed three times with Tris buffered saline. […] peroxidase (HRP)-conjugated secondary antibody was diluted 1:5000 with TBST in 1% (wt/vol) skim milk powder. ECL_system (Amersham Pharmacia Biotech) was used as the membrane.
(§1) 17-week-old […] BALB/c mice were equally divided into 3 groups. The group was divided into a negative control group in which PBS was intraperitoneally injected, a group in which only wtRANKL was injected, and a group in which wtRANKL was injected after immunization with mtRANKL for 52 days. mtRANKL was injected after mixing with an aluminum hydroxide adjuvant. The immunization process started with 1st immunization of mtRANKL at 52 days, 2nd immunization at 39 days, 3rd immunization at 14 days each before injection of wtRANKL, and a total of 3 immunizations was performed. The amount of mtRANKL was 0.2 mg per mouse.
To determine whether antibodies were produced due to mtRANKL immunization, Western blot of Reference Example 4 was performed on the collected serum, and the results are shown in FIG. 6A.

BMMs = experiment: F-actin ring formation assay; type: cell-based, mouse; details: mRANKL-MT3 150 ng/mL
Description: We used bone-resorption and F-actin ring formation assays to investigate osteoclast activity. To observe bone resorption in vitro, BMMs were cultured in Corning Osteo Assay Surface 96-well Multiple Well Plates (Sigma) with 30 ng/mL M-CSF and 75 ng/mL sRANKL (soluble RANKL; R&D Systems) or isolated RANKL for 6 days. Then, the plates were washed with pure water. To monitor actin ring formation, BMMs were grown on glass slides. After culture, the cells were fixed with 4% formalin, permeabilized with 0.5% Triton X100 in PBS for 5 min at room temperature, and incubated with 0.5 mg/mL TRITC-labelled phalloidin for 30 min. The cells were then rinsed with PBS. F-actin rings were visualized using a fluorescence ECLIPSE Ts2R microscope (Nikon, Tokyo, Japan).

[2] = system: bone marrow-derived monocytes (BMMs); experiment: Inhibition of wild type RANKL-induced TRAP activity by mutant RANKL in BMMs; type: cell-based, mouse; details: BMMs treated with mutant and wild type RANKL; even at a 3:1 wild type:mutant ratio
Description: To investigate the optimized inhibitory effect against wild type RANKL, bone marrow-derived monocytes (BMMs) were treated with purified mutant and wild type RANKL (FIG. 2E, F). […] Therefore, we used mRANKL-MT3 for subsequent experiments.
4-week old male BALB/c mice were purchased from Orient Bio (Gwangju, Korea) and kept in an animal facility approved by the Chosun University Animal Management Committee (IACUC2017-A0002). After obtaining bone marrow cells from mice, bone marrow mononuclear cells were seeded into 96-well plates (1 Y 10^4 cells/well), and in the absence or presence of various concentrations of compounds, incubated with M-CSF (100 ng/mL) overnight before stimulation with RANKL (50 ng/well). The medium was replaced every other days. 6 days later, the cells were fixed with 4% paraformaldehyde, permeated in 0.1% Triton X-100, and washed with PBS. Then, TRAP activity (Sigma-Aldrich, St. Louis, Mo., USA) staining was performed. TRAP-positive multinuclear cells containing 5 or more nuclei were counted as osteoclasts.

BALB/c mice = experiment: Bone destruction by injected mtRANKL, micro-CT; type: in vivo, mouse; details: subcutaneous 1.0 mg/kg three times a week
Description: The right femur of each mouse subjected to each experiment was incised and CT imaging was performed using a Quantum GX pCT imaging system (PerkinElmer, Hopkinton, Mass., USA) located at the Korea Basic Science Institute in Gwangju. As for the X-ray source, the field of view was set to 45 mm, 90 kV and […] (voxel size, 90 μm; scanning time, 14 minutes). CT imaging was performed using a Quantum GX 3D Viewer software. After scanning, image segmentation was performed in Analyze (AnalyzeDirect, Overland Park, Kans., USA). Briefly, the legs were segmented using semi-automatic and manual tools (e.g., object extractor, area expansion, and object separator) using volume editing tools. Then, a 3D rendering of the leg was created, and bone mineral density (BMD), bone volume (BV), bone volume percentage (%), and trabecular thickness were calculated using the ROI tools.
To investigate the bone-destructive effect of mtRANKL, 4-week-old male BALB/c mice (Orient Bio) were placed in a cage capable of accommodating up to 4 animals in a light-controlled environment ([…]) and provided with autoclaved water and both whole and powdered rodent diet (Purina, St. Louis, Mo., USA). Starting from 6 weeks of age, 9 mice were randomly divided into three groups, and each group was subcutaneously injected with wild-type RANKL (Amgen, Thousand Oaks, Calif., USA), mtRANKL purified in Reference Example 2, and saline three times a week (1.0 mg/kg). The trabecular bone in femoral neck was examined by Micro-CT analysis described in Reference Example 6.

isolated spleen cells = experiment: Th1/Th2 cytokine secretion of isolated spleen cells; type: cell-based, mouse; details: culture supernatant of Sham and IM splenocytes stimulated with sRANKL or mRANKL-MT3
Source text: To determine whether mRANKL-MT3 immunization influences Th1 and Th2 cytokine production, we evaluated the effects of mRANKL-MT3 on IL-4 and IL-10 secretion, which are markers for Th2 responses, and IFN-γ, a marker for Th1 responses, in the culture supernatant of isolated spleen cells stimulated with sRANKL or mRANKL-MT3 (FIG. 8C).

RANKL [3] = experiment: ELISA of serum RANKL levels; type: in vivo, mouse; details: wtRANKL 2.0 mg/kg s.c. to non-immunized mice, or to mice immunized with mtRANKL
Description: A commercially available enzyme immunoassay kit (R & D Systems, Minn., USA) was used to measure RANKL levels in the serum of mice according to the manufacturer's protocol. Absorbance (450 nm) was measured in a colorimetric microplate reader (BioTek, Winooski, USA). The reading of the absorbance was then subtracted from the reading at 570 nm.
as §1
After 52 days, PBS was injected into the negative control group and wtRANKL was injected into the other two groups. Next day, wtRANKL was injected once more. wtRANK was subcutaneously injected (2.0 mg/kg). Serum was collected to determine the titer of anti-RANKL antibody. Then, after extracting tibias, the adhesive soft tissues of tibias were removed.

B1: mRANKL-MT3: mouse RANKL mutant: K180R, D189I, R190K, H223F, H224Y; nucleic acid SEQ ID NO: 3 (protein, UniProt O35235 158-316, looked up, variant K180R D189I R190K H223F H224Y)
chain: KPEAQPFAHLTINAASIPSGSHRVTLSSWYHIKGWAKISNMTLSNGKLRVNQDGFYYLYANICFRFYETSGSVPTDYLQLMVYVVKTSIKIPSSHNLMKGGSTKNWSGNSEFHFYSINVGGFFKLRAGEEISIQVSNPSLLDPDQDATYFGAFKVQDID
antibodies in serum (Western blot) (RANKL [1]): antibodies were detected
F-actin ring formation (BMMs): no resorption pits or F-actin rings were observed
inhibitory effect against wild type RANKL (TRAP activity) [2]: the most effective at inhibiting TRAP activity
trabecular bone by Micro-CT (osteoporosis) (BALB/c mice): no significant change was observed
IFN-γ levels (isolated spleen cells): no significant differences
IL-4 and IL-10 secretion (isolated spleen cells): significantly increased
level of RANKL in the blood (ELISA) (RANKL [3]): eliminated
